The source of these data is the supplement of paper PMC10724198.

± gives the standard deviation of the averaged measurements.

The subject of the data set is Saccharomyces cerevisiae. Kind of data set: protein stability index of tFT-peptide fusion (C-terminal peptide) (PSI (0-1 scale)); higher = more stable (slower turnover). The note with it: temperature: 30 C. The procedure: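 MPS profiling in S. cerevisiae of the yeast C-terminome library: the last 12 aa of each annotated ORF are fused to the C-terminus of a sfGFP-mCherry timer, after a GGGS linker. Cells are FACS-sorted into 8 mCherry/sfGFP bins and deep-sequenced. PSI runs from 0 (unstable) to 1 (stable); wild type and das1Δ backgrounds, two technical replicates each.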

The mark [1] stands for this setting: genetic background: das1 deletion.

In the case of PICIVGNFIPLS [RDS2 C-terminal 12 aa], the protein stability index under setting [1] turned out to be 0.689 ± 0.024 and the protein stability index (genetic background: wild type) stood at 0.722 ± 0.024.
The like results for PICKLLEEEERG [ALG11 C-terminal 12 aa] were, in that order, 0.7 ± 0.011 and 0.699 ± 0.041.
In the same order, the values of PINDRKYPNQCH [SPR1 C-terminal 12 aa] are 0.715 ± 0.028 and 0.6948 ± 0.0011.
In the same order, the values of PIQQSIAHINPP [LDS2 C-terminal 12 aa] are 0.718 ± 0.0075 and 0.6902 ± 0.0066.
As for PKDLTSLLEWKE [CLA4 C-terminal 12 aa], the protein stability index runs as follows: under setting [1], 0.7005 ± 0.006; (genetic background: wild type) 0.681 ± 0.044.
In the same order, the values of PLSKMEDQVFVF [CBR1 C-terminal 12 aa] are 0.663 ± 0.036 and 0.657 ± 0.027.
In the same order, the values of PQFKYRADFLII [APE3 C-terminal 12 aa] are 0.664 ± 0.011 and 0.676 ± 0.037.
Sequence PQRTKIQAFNTL [MRP1 C-terminal 12 aa] came in with a protein stability index under setting [1] of 0.70194 ± 0.0001 and a protein stability index (genetic background: wild type) of 0.675 ± 0.029.
In the same order, the values of PRGQDTEDHILE [PIF1 C-terminal 12 aa] are 0.725 ± 0.02 and 0.692 ± 0.0098.
For PRLKAKKKVTKP [TFB4 C-terminal 12 aa], the protein stability index is, setting by setting: under setting [1], 0.6873 ± 0.003; (genetic background: wild type) 0.67 ± 0.012.
On to PSENFATKAKLP [YDR187C C-terminal 12 aa], for which the protein stability index by setting is: under setting [1], 0.7507 ± 0.0029; (genetic background: wild type) 0.71 ± 0.025.
As to PSIQHDYTMEGW [ATG3 C-terminal 12 aa], the protein stability index reads like this: under setting [1], 0.72275 ± 0.00032; (genetic background: wild type) 0.6562 ± 0.0032.
For PSPYYVSEVPVS [Q0010 C-terminal 12 aa], the protein stability index is, setting by setting: under setting [1], 0.6371 ± 0.0047; (genetic background: wild type) 0.6238 ± 0.0025.
Turning to PSSEEDILHDEL [LHS1 C-terminal 12 aa], the protein stability index runs as follows: under setting [1], 0.68 ± 0.046; (genetic background: wild type) 0.692 ± 0.034.
In the same order, the values of PSVSRKTPDYFL [PPH21 C-terminal 12 aa] are 0.701 ± 0.053 and 0.7 ± 0.032.
The like results for PSYEMRYNKNER [YBL065W C-terminal 12 aa] were, in that order, 0.7137 ± 0.0027 and 0.715 ± 0.0081.
On to PTQPTVSNKKNN [GPI14 C-terminal 12 aa], for which the protein stability index runs as follows: under setting [1], 0.7252 ± 0.0055; (genetic background: wild type) 0.68 ± 0.022.
The like results for PVHLQTVGLVDC [PIR5 C-terminal 12 aa] were, in that order, 0.623 ± 0.032 and 0.672 ± 0.058.
Consider PYKSTELRSVAN [YDL187C C-terminal 12 aa], for which the protein stability index came to 0.671 ± 0.04 under setting [1] and 0.742 ± 0.048 (genetic background: wild type).
In the same order, the values of “QAKFFYQDLMSL [YHL046W-A C-terminal 12 aa]” are 0.72 ± 0.038 and 0.739 ± 0.052.
In the same order, the values of QAQLTAATNAKQ [PDC5 C-terminal 12 aa] are 0.6916 ± 0.0017 and 0.731 ± 0.069.
Sequence QDEDEDEDIEMQ [RAD3 C-terminal 12 aa] had a protein stability index under setting [1] of 0.6935 ± 0.0052 and a protein stability index (genetic background: wild type) of 0.705 ± 0.057.
On to QDYVKDRHHGLK [NUP157 C-terminal 12 aa], for which the protein stability index stood at 0.698 ± 0.01 under setting [1] and 0.679 ± 0.043 (genetic background: wild type).
Consider QEPVIDPGTVVV [MRPL3 C-terminal 12 aa], for which the protein stability index was 0.6775 ± 0.0024 under setting [1] and 0.676 ± 0.011 (genetic background: wild type).
For “QEQQNLRQKQPN [YBL029C-A C-terminal 12 aa]”, the protein stability index was determined as 0.704 ± 0.01 under setting [1] and 0.7093 ± 0.0059 (genetic background: wild type).
In the same order, the values of QESTLETTQKED [AFI1 C-terminal 12 aa] are 0.703 ± 0.032 and 0.666 ± 0.018.
Turning to QETAISVAKLFK [RPT6 C-terminal 12 aa], the protein stability index runs as follows: under setting [1], 0.684 ± 0.007; (genetic background: wild type) 0.7079 ± 0.007.
In the same order, the values of QFAQDTLKNFVQ [SAM35 C-terminal 12 aa] are 0.733 ± 0.022 and 0.713 ± 0.03.
The like results for QGRQGFNGGSRW [YNL208W C-terminal 12 aa] were, in that order, 0.706 ± 0.025 and 0.681 ± 0.028.
Turning to QKARDFSRSVVH [ARO2 C-terminal 12 aa], the protein stability index was found to be 0.696 ± 0.00098 under setting [1] and 0.698 ± 0.021 (genetic background: wild type).
As for QKTAQQKNCSIM [YNL234W C-terminal 12 aa], the protein stability index turned out to be 0.746 ± 0.018 under setting [1] and 0.721 ± 0.019 (genetic background: wild type).
In the same order, the values of QLAIALSLSEIN [UFO1 C-terminal 12 aa] are 0.694 ± 0.011 and 0.714 ± 0.035.
The like results for QLISTPIKDNEH [KIC1 C-terminal 12 aa] were, in that order, 0.693 ± 0.018 and 0.682 ± 0.031.
Turning to QLKLLNALDSVD [YDR537C C-terminal 12 aa], the protein stability index by setting is: under setting [1], 0.696 ± 0.011; (genetic background: wild type) 0.757 ± 0.069.
In the same order, the values of QLLNDSPLEDKF [FBP26 C-terminal 12 aa] are 0.711 ± 0.026 and 0.7 ± 0.026.
Turning to QLMYEQDDEEVP [HAP3 C-terminal 12 aa], the protein stability index is, setting by setting: under setting [1], 0.718 ± 0.015; (genetic background: wild type) 0.64582 ± 0.00022.
The like results for QNARAAFKSTLV [YDR514C C-terminal 12 aa] were, in that order, 0.707 ± 0.012 and 0.698 ± 0.044.
The like results for QPSSASCLFILI [AHT1 C-terminal 12 aa] were, in that order, 0.716 ± 0.023 and 0.696 ± 0.055.
In the same order, the values of QQFYKDVYAMQD [THI2 C-terminal 12 aa] are 0.74 ± 0.018 and 0.6413 ± 0.001.
For QSLPPTLKVNRL [RPL38 C-terminal 12 aa], the protein stability index stood at 0.672 ± 0.012 under setting [1] and 0.65859 ± 0.00042 (genetic background: wild type).
For the sequence QTAISMNDEDDA [GVP36 C-terminal 12 aa], the protein stability index came out at 0.712 ± 0.013 under setting [1] and 0.7006 ± 0.0018 (genetic background: wild type).
The like results for QTLDSEYNTILQ [GAT2 C-terminal 12 aa] were, in that order, 0.704 ± 0.024 and 0.742 ± 0.073.
The like results for “QTSGTFLHFSRP [YEL075W-A C-terminal 12 aa]” were, in that order, 0.712 ± 0.01 and 0.718 ± 0.062.
In the same order, the values of QTSKGPENLQFS [RAD53 C-terminal 12 aa] are 0.71 ± 0.05 and 0.723 ± 0.018.
Take QVNKPGPLTVPF [MEH1 C-terminal 12 aa]: the protein stability index turned out to be 0.702 ± 0.015 under setting [1] and 0.716 ± 0.018 (genetic background: wild type).
In the same order, the values of QWMNEMVERWAN [SOH1 C-terminal 12 aa] are 0.707 ± 0.0074 and 0.7 ± 0.0099.
In the same order, the values of RAKTMNRSQSHV [PFK26 C-terminal 12 aa] are 0.697 ± 0.0089 and 0.7255 ± 0.0013.
In the same order, the values of RAYCVGFKWVRF [MCH5 C-terminal 12 aa] are 0.675 ± 0.02 and 0.145 ± 0.028.
RDWSSFSKDYEI [PMS1 C-terminal 12 aa]: the protein stability index was found to be 0.7561 ± 0.0022 under setting [1] and 0.699 ± 0.0094 (genetic background: wild type).
As for RGRIAAQKRIAA [RPL17A C-terminal 12 aa], the protein stability index is, setting by setting: under setting [1], 0.667 ± 0.0084; (genetic background: wild type) 0.604 ± 0.045.
The like results for RKFFKRMTNFWC [TAT1 C-terminal 12 aa] were, in that order, 0.7409 ± 0.0066 and 0.436 ± 0.025.
In the same order, the values of RKRFSYTQTKNK [RSM19 C-terminal 12 aa] are 0.678 ± 0.013 and 0.66787 ± 0.00059.
For the sequence RKSKRVLPVSKF [PET309 C-terminal 12 aa], the protein stability index runs as follows: under setting [1], 0.783 ± 0.0088; (genetic background: wild type) 0.794 ± 0.087.
In the same order, the values of RLIFYPDEYEQL [PRE3 C-terminal 12 aa] are 0.743 ± 0.012 and 0.736 ± 0.071.
The like results for RLKPRQIVPKRS [SLI15 C-terminal 12 aa] were, in that order, 0.7194 ± 0.0028 and 0.724 ± 0.054.
The like results for RLKSQNVVTYYK [NIP100 C-terminal 12 aa] were, in that order, 0.707 ± 0.032 and 0.692 ± 0.015.
RLSRWFNETENI [MEI4 C-terminal 12 aa]: the protein stability index is 0.756 ± 0.043 under setting [1] and 0.727 ± 0.096 (genetic background: wild type).
In the same order, the values of RMLMGTTKRGRF [YAL037W C-terminal 12 aa] are 0.704 ± 0.02 and 0.6898 ± 0.0036.
In the same order, the values of RNVDKLDVFSNS [MRM2 C-terminal 12 aa] are 0.716 ± 0.019 and 0.727 ± 0.037.
In the same order, the values of RPQYRRIAALEE [PSY3 C-terminal 12 aa] are 0.695 ± 0.023 and 0.672 ± 0.015.
For RQEEIKKRTALV [DPC25 C-terminal 12 aa], the protein stability index reads like this: under setting [1], 0.705 ± 0.0089; (genetic background: wild type) 0.619 ± 0.022.
In the same order, the values of RRFDVYSDVNAH [NIT3 C-terminal 12 aa] are 0.71 ± 0.0033 and 0.677 ± 0.044.
In the same order, the values of RSFVTRFLHFWC [HIP1 C-terminal 12 aa] are 0.777 ± 0.024 and 0.716 ± 0.046.
The like results for RSIRWFREAGGK [SKI8 C-terminal 12 aa] were, in that order, 0.695 ± 0.018 and 0.7202 ± 0.0028.
Consider RSKYGAKKPSKS [MRPS12 C-terminal 12 aa], for which the protein stability index is 0.6815 ± 0.0025 under setting [1] and 0.6855 ± 0.0067 (genetic background: wild type).
In the same order, the values of RSNAERKRRSPL [PBP2 C-terminal 12 aa] are 0.7121 ± 0.0039 and 0.68 ± 0.021.
The like results for RSTNGRPQRGYR [YLR326W C-terminal 12 aa] were, in that order, 0.675 ± 0.027 and 0.664 ± 0.0025.
